Assay: soluble on expression in E. coli; label from the status in PepcDB or PDB records

| Sequence | soluble on expression in E. coli |
| --- | --- |
| AAKGNMQCNIFVPAGTSKGKTTQTRLYGANCIEVEGTREDVALAAIESSVTHGSHYVGHNWHPLFIEGVKSIAYEIWEQCGYKAPDNFVVPAGNGSLLAGAYIGFSELLKGGEISKLPRLFGIQSESIQPFVQTFNNKEINITSEDTIAEGIKIKRSSRMNEIVQFVKETNGNFISVNEQQIQSALKEMGAQGYFIEPTSATAFAGIAQLIKTQEIKPDELTVGVVTGNGLKATNSIEHLINDMRG | not soluble |
| AAQPADIVLTQTPSSLPVSVGEKVTMTCKSSQTLLYSNNQKNYLAWYQQKPGQSPKLLISWAFTRKSGVPDRFTGSGSGTDFTLTIGSVKAEDLAVYYCQQYSNYPWTFGGGTRLEIKRGGGGSGGGGSGGGGSGGGGSEVQLQQSGPEVVKTGASVKISCKASGYSFTGYFINWVKKNSGKSPEWIGHISSSYATSTYNQKFKNKAAFTVDTSSSTAFMQLNSLTSEDSAVYYCVRSGNYEEYAMDYWGQGTSVTVSS | soluble |
| ACGYSDRVLQLTLGNSTITTQEAANSVVAYGRWPEFIRDDEANPVDQPTEPDVATCRFYTLDTVMWGKESKGWWWKLPDALRDMGLFGQNMYYHYLGRSGYTVHVQCNASKFHQGALGVFAIPEYCLAGDSDKQRYTSYANANPGERGGKFYSQFNKDNAVTSPKREFCPVDYLLGCGVLLGNAFVYPHQIINLRTNNSATIVLPYVNALAIDSMVKHNNWGIAILPLSPLDFAQDSSVEIPITVTIAPMCSEFNGLRNVTAPKFQ | soluble |
| ACTQPSDWVPPAKNDALVIALKKVIGGRLSDAFHIRDKLQRRDAIAAVKDDVIQQLAGRLEVEGWNLAELLKEFGELEYRTMRDALLDTKVRIDGRSLEAVRP | not soluble |
| ADMEVIELNKCTSGQSFEVILKPPSFDGVPEFNASLPRRRDPSLEEIQKKLEAAEERRKYQEAELLKHLAEKREHEREVIQKAIEENNNFIKMAKEKLAQKMESNKENREAHLAAMLERLQEKDKHAEEVRKNKELKEEASR | soluble |
| ADMGEKFDATFKAQVKAAKADMVMLSPKDAYKLLQENPDITLIDVRDPDELKAMGKPDVKNYKHMSRGKLEPLLAKSGLDPEKPVVVFCKTAARAALAGKTLREYGFKTIYNSEGGMDKWLEEGLPSLDRSHHHHHH | soluble |
| AEIVEGRDYTVLSAPQPTEGDSEHIEVIEFFWYGCPHCSDLHPHLSRWLENKPADVAFRFVPAILRNNWVPGAKTFYAMESLGLTQTLHDKVYHAIHREKTDLSKEATLFDWIGKQGVDRDKFIGAYNSFTVQNQANRSAQMIRQYKLTGVPALVVDGRYLTSGKAGGTPQDTISVLNQLIEK | not soluble |
| AEKTNYAVTYKSDSVPSISMAVNTEQSSHYISQFIAVQGLEDHSAKSIFIQDMLQRIVSKRLMHYVREELSLDYAPYALMVNADSEFKPHWVMGAQVDPKNAELIESAIDKVIKDLLRGVTENEVNAAAKQLVVDLEPLKNNSTQQAWLLNRYTIHNYGIEALFGISETANSVNAEDINRLIKYSFGKNSHQFKYLSTPI | not soluble |
| AELPPEFAAQLRKIGDKVYCTWSAPDM | soluble |
| AEPVKVGSKIDTEGALLGNMIQQVLESHGVKTINKIQLGTTPVVRGAIVAGELDIYPEYTGNGAFFFKDENDPAWKNAQQGYEKVKRLDQEKHQLVWLTPAPANNTWTIAVRQDLAEKNKLTSLADLSRYLKQGGEFKLAASAEFIERPDALPAFEKAYGFNLNQNQLLSLAGGDTAVTIKAAAQQTSGVNAAMAYGTDGPVAALGLQTLSDPQGVQPIYAPTPVVREAVLKAYPQIADWLQPVFASLDEKTLQQLNARIAVEGQDAKRVAADYLQQKGLLK | not soluble |
| AHHHHHHGSHFIKHFEEELIALSNAPHRGGLTKARGFFFMKVEKNYRGDYKKDCLEFERKNGLRSFVGFMTAVDIEKVMAIKSLGNVEVYLTAGISNPAIAGEEPKPWEPGTINMAIVIDEGLTIGAMANAIMTATEAKTYTLLKLGYNATGTTSDGIGVFARQGNVEWAGTATRLGFEIGKAVREALEESIKKWEKIKSL | soluble |
| AHHHHHHGSKAIILAAGKGERLRPLTDDRPKVVLKIANKPIISYVLENLDPFVDEFIIVVKYMKEKVIDLLGDEFRGKPITYVEQGEEEGTAAAVYSVKEFIESNEEFFVVNGDLYFEPDAVKGLLHVFKKEKGDAGIVVKEFENLSQYGMVEVENGKVKGIIEKPGNVKGYANLGIYIFKSDVFDYIENTEISERGEYEITDTINLMIKDGKSVVYYNYEGFWSDIGRPWDLLEVNEYILKTKLKHEIRGVVEEGATIIPPVEIGEGTIVRAGSYIIGPVKIGKNCRIGPNCYIRPYTSIGDNCHIGNAVEVKNSIIMDNSNAPHLNYVGDSIIGENTNLGAGTITANLRHDKGTIKVEVKGKLEDSGRRKLGAIIGHNVKVGINVTIYPGRKIGSNSFIGPGVIVDKNIPQNVLVTVKQEKKVIEK | soluble |
| AHHHHHHGSKIARVNGLWITIPNVRYSFFNTPYIGHRIGTAVDVYFEDRALFPFEEGKLIEVRKIRTPRYIPVDHDYLMVFKLGEFCLKVLHVDPSVKIGEKVFLGDEIGKLRLSGFFSPWSDKHAHFEVRDCNDRYRARGAFPLFPEVKPLVPIVKGNTFEVVERKGHYLWLKPLETKGKGMTPLGNIEGGLPHYRYGAIFSGREGKLFGIDVKAQEILENGVGIFKPNFEVLANGVKVRGIGVYCNEERVKLIGGNFEVGDIIKIEIKARLGT | not soluble |
| AHHHHHHGSKLEIRDLSVGYDKPVLERITMTIEKGNVVNFHGPNGIGKTTLLKTISTYLKPLKGEIIYNGVPITKVKGKIFFLPEEIIVPRKISVEDYLKAVASLYGVKVNKNEIMDALESVEVLDLKKKLGELSQGTIRRVQLASTLLVNAEIYVLDDPVVAIDEDSKHKVLKSILEILKEKGIVIISSREELSYCDVNENLHKYSTKIDKKD | soluble |
| AHHHHHHGSKVYAPATIANFGPGFDVFGLAIETPRDTVIAKESDDFRIEVEGYKVPENDENVALVAAKALFKLVGEEGGIYLKLKKGIRPKSGLGSSGASSIAGAVAAARILGVEDDEIIIRAALEGERKASGSPHGDNVVPSYYGNFTIVESLNPLRVHNIEVDFKVVVILPSVEVPTSEARKVLPKKVPLKDAVKNIALASSLVLALKEGNLEEVGRLLEDHLALPYRLSLVPWFPKVKEAAKEAGAYGVMISGSGPAVFALGENLKEIGKAMKEAFESFGIEAEYWVTKVGRGAKWC | not soluble |
| AHHHHHHGSLIVVRPGRKKNELEAFIIENPPEKLSQRRNLKADRVVRLIMRDNRLFKALEGSQYLNPKEVERALRNSRIVLVNANEWEEYFKKRLMNKRVEKADICRLCLLNGKITVLTEGNRIRYRDEYICESCAEEELKRELRFRFNSIGMLEQAKKLLERFRDLDKVISIFDPSFDPTKHPEITKWDELKAKHIRVEKMHIDELNIPEEFKKVLKAEGINELLPVQVLAIKNGLLEGENLLVVSATASGKTLIGELAGIPKALKGKKMLFLVPLVALANQKYEDFKRRYSKLGLKVAIRVGMSRIKTKEEPIVLDTGTDAHIIVGTYEGIDYLLRAGKKIGNVGTVVIDEIHMLDDEERGARLDGLIARLRKLYSNAQFIGLSATVGNPQELARKLGMKLVLYDERPVDLERHLIIARNESEKWRYIAKLCKAEAMRKSEKGFKGQTIVFTFSRRRCHELASFLTGQGLKAKAYHSGLPYVQRKLTEMEFQAQMIDVVVTTAALGAGVDFPASQVIFESLAMGNKWITVREFHQMLGRAGRPQYHEKGKVYIIVEPGKKYSAQMEGTEDEVALKLLTSPIEPVIVEWSDEFEEDNVLAHACVFNRLKVIEEVQSLCLGANQSAKNVLEKLMEKGLVKIYGDKVEATPYGRAVSMSFLLPREAEFIRDNLESTDPIEIAIKLLPFENVYLPGSLQREIESAVRGKISSNIFSSSFASVLEELDKIIPEISPNAAERLFLIYQDFFNCPEQDCTEFAMERIGRKIIDLRREGYEPSKISEHFRKVYALILYPGDVFTWLDGIVRKLEAIERIARVFNKRRVVEDTIRVRREIEEGKILKGERR | not soluble |
| AHHHHHHGSLSERELERYDRQIMIFGIEGQEKLKKANVAVVGVGGLGSPVAYYLAAAGVGTILLIDEQTPELSNLNRQILHWEEDIEKNPKPISAKWKLERFNSNIKIETFVGRLSEENIDEVLSGVDVIVDCLDNFETRYLLDDFAHKKGIPLVHGAVEGFYGQVTTIIPGKTKRLREIFPKVKKKGKFPIVGATAGVIGTIQASEVIKLITGYGEPLANKLLIIDLANNTYEIIEI | soluble |
| AHHHHHHGSRIVAITDIHGRRSMVEKLVDVVRREDVDVILIAGDITHFSGAEEAERVLSPLLTLEIPLLAVMGNCDGRDVLDFLEERGVSVHDKRVEIKGVGVVGFGGSNITPFSTIWEFSDDVIYSSLIRNYRQGDIVLTHAPPYGTKLDKTHSGIHAGSMGLRKFIEEKQPKLCICGHIHEGRGVEKIGNTIVVNPGPLARGYYAVIEGDSVELLNLKG | soluble |
| AHHHHHHGSRVLKSEGVSMLNTELLTTGVKGLDELLGGGVAKGVILQVYGPFATGKTTFAMQVGLLNEGKVAYVDTEGGFSPERLAQMAESRNLDVEKALEKFVIFEPMDLNEQRQVIARLKNIVNEKFSLVVVDSFTAHYRAEGSREYGELSKQLQVLQWIARRKNVAVIVVNQVYYDSNSGILKPIAEHTLGYKTKDILRFERLRVGVRIAVLERHRFRPEGGMVYFKITDKGLEDVKNED | soluble |
| AHHHHHHGSSKNYKKHQAYIAGRDKMKVAVITGASRGIGEAIAKALAEDGYSLALGARSVDRLEKIAKELSEKHGVEVFYDYLDVSKPESVEEFARKTLAHFGDVDVVVANAGLGYFGRLEELTEEQFHEMIEVNLLGVWRTIKAFLNSLKRTGGVAIVVTSDVSARLLPYGGGYVATKWAARALVRTFQIENPDVRFFELRPGAVDTYFGGSKAGKPKEQGYLKPEEVAEAVKYLLRLPKDVRVEELMLRSIYQKPEY | soluble |
| AHHHHHHGSVRVAIIGQGYVASIFAVGLERIKEGELGYYGIPLANELPIKVEDIKIVASYDVDKTKIGLPLSEIVQRYWKGNVPESLQEVFVRKGIHLGSLRNLPIEATGLEDEMTLKEAIERLVEEWKEKKVDVIINVPTTEAFTPFGKLEELEKAIKDNNKERLTATQAYAYAAAQYAKEVGGAAFVNAIPTLIANDPAFVELAKESNLVIFGDDGATGATPLTADILGHLAQRNRHVLDIVQFNIGGNTDFLALTDKERNKSKEYTKSSVVEDILGYDAPHFIKPTGYLEPLGDKKFIAMHIEYISFNGARDELIIAGRINDSPALAGLLVDLARLGKIAVDKKEFGTVYPVNAFYMKNPGPKEAKNIPRIIAYEKLRQWAGLPPRYL | soluble |
| AHHHHHHGSYRIKDEWGEFLVRLARRAIEEYLRTGREIEPPKDIPPELWEKMGVFVTLNRHNVPPQAALRGCIGFPLPIYPLVKATIKAAIYAAVDDPRFPPVKLEEMNNIVVEVSVLTPPELIEGPPEERPKKIKVGRDGLIVEKGIYTGLLLPQVAVEWGWDEEEFLAETCWKAGLPPDCWLDEDTKVYKFTAEIFEEEYPRGPVKRKPLIPQSQD | soluble |
| AIAAESNQNTDGAVEEGEDENTGDSNLQMELSAFRAKWMSELQPSSGGQRSFSRNAELRRRQETAKEEKARELFLKAVEEEQNGAVYEAIKYYKSAMQLVPDIEFKINYSRTPDPERGGSYLESSENNREIDDLLTYFQHQLTLGNDAMKLCEHETETSQVHISALPFEVLMYIFRWVVSCDLDLRALEQLSLVCRGFYICARDPEIWRSACLRVWGRSCTKMLPYSSWREMFLERPRVRFDGVYISKTSYIRQGEESLDGFYRAWHQVEYYRYLRFFPDGQVMMLTTPEDPLVTVPRLRSKNSRMDSIMFGHYRLSQDTDNQTKVYVVVSKRKEEKVSEYQRSRFCRRNPVPEAERSFHVGLQLSSGGRQRFNKLVWIHHSCHITYRSTGETVVTAFDVDKMYTPLFFARVKSYTAFSERPL | soluble |

— the DeepSol protein solubility set
